Substitutions are numbered along the chain they refer to. Names may count otherwise.
T1: PUF4 RNA-binding domain (Saccharomyces cerevisiae, UniProt P25339 537-888)
T1 sequence: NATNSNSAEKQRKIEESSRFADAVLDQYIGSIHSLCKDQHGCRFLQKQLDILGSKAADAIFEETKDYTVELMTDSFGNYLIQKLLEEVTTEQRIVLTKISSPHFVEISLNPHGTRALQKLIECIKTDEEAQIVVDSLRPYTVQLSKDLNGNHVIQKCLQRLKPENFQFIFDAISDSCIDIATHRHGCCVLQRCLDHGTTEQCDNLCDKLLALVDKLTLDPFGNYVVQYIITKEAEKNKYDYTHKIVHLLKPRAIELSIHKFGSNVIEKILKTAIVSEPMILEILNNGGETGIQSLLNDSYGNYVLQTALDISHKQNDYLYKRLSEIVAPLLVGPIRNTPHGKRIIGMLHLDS

B1: Id_ii_S4_P3E.2_K3.1_C3.2_[C-2G]_[T-1G]_H3.1_A3.1_F3.1_T3.2_[T9A]_[A10G] (ssRNA)
RNA: UUUGACAACUGAUCGUUCUUUCUGGUGUAUAUAAGUUCUUUCUCGAUCAGUUGUCUUU
B2: Id_ii_S4_P3E.2_K3.1_C3.2_[C-2T]_[T-1A]_H3.1_A3.1_F3.1_T3.2_[T9A]_[A10C] (ssRNA)
RNA: B1 RNA with G24U, G25A, G35C
B3: Id_ii_S4_P3E.2_K3.1_C3.2_[C-2T]_[T-1G]_H3.1_A3.1_F3.1_T3.2_[T9A]_[A10T] (ssRNA)
RNA: B1 RNA with G24U, G35U
B4: Id_ii_S4_P3E.2_K3.1_C3.2_[C-2G]_H3.1_A3.1_F3.1_T3.2_[T9A]_[A10T] (ssRNA)
RNA: B1 RNA with G25U, G35U
B5: Id_ii_S4_P3E.2_K3.1_C3.2_[C-2T]_[T-1A]_H3.1_A3.1_F3.1_T3.2_[T9G]_[A10C] (ssRNA)
RNA: B1 RNA with G24U, G25A, A34G, G35C
B6: Id_ii_S4_P3E.2_K3.1_C3.2_[C-2T]_[T-1A]_H3.1_A3.1_F3.1_T3.2_[T9C]_[A10C] (ssRNA)
RNA: B1 RNA with G24U, G25A, A34C, G35C
B7: Id_ii_S4_P3E.2_K3.1_C3.2_[C-2T]_[T-1C]_H3.1_A3.1_F3.1_T3.2_[T9C]_[A10T] (ssRNA)
RNA: B1 RNA with G24U, G25C, A34C, G35U
B8: Id_ii_S4_P3E.2_K3.1_C3.2_[C-2T]_[T-1C]_H3.1_A3.1_F3.1_T3.2_[T9C] (ssRNA)
RNA: B1 RNA with G24U, G25C, A34C, G35A
B9: Id_ii_S4_P3E.2_K3.1_C3.2_[C-2T]_H3.1_A3.1_F3.1_T3.2_[T9G]_[A10T] (ssRNA)
RNA: B1 RNA with G24U, G25U, A34G, G35U
B10: Id_ii_S4_P3E.2_K3.1_C3.2_[C-2T]_[T-1C]_H3.1_A3.1_F3.1_T3.2_[T9A]_[A10C] (ssRNA)
RNA: B1 RNA with G24U, G25C, G35C
B11: Id_ii_S4_P3E.2_K3.1_C3.2_[C-2T]_H3.1_A3.1_F3.1_T3.2_[T9C]_[A10C] (ssRNA)
RNA: B1 RNA with G24U, G25U, A34C, G35C
B12: Id_ii_S4_P3E.2_K3.1_C3.2_[C-2T]_[T-1A]_H3.1_A3.1_F3.1_T3.2_[T9A] (ssRNA)
RNA: B1 RNA with G24U, G25A, G35A
B13: Id_ii_S4_P3E.2_K3.1_C3.2_[C-2G]_H3.1_A3.1_F3.1_T3.2_[T9C]_[A10C] (ssRNA)
RNA: B1 RNA with G25U, A34C, G35C
B14: Id_ii_S4_P3E.2_K3.1_C3.2_[C-2T]_[T-1A]_H3.1_A3.1_F3.1_T3.2_[T9C]_[A10T] (ssRNA)
RNA: B1 RNA with G24U, G25A, A34C, G35U
B15: Id_ii_S4_P3E.2_K3.1_C3.2_[C-2T]_[T-1C]_H3.1_A3.1_F3.1_T3.2_[T9G]_[A10T] (ssRNA)
RNA: B1 RNA with G24U, G25C, A34G, G35U
B16: Id_ii_S4_P3E.2_K3.1_C3.2_[C-2T]_[T-1C]_H3.1_A3.1_F3.1_T3.2_[A10T] (ssRNA)
RNA: B1 RNA with G24U, G25C, A34U, G35U
B17: Id_ii_S4_P3E.2_K3.1_C3.2_[C-2G]_[T-1G]_H3.1_A3.1_F3.1_T3.2_[A10T] (ssRNA)
RNA: B1 RNA with A34U, G35U
B18: Id_ii_S4_P3E.2_K3.1_C3.2_[C-2G]_[T-1G]_H3.1_A3.1_F3.1_T3.2_[T9A]_[A10T] (ssRNA)
RNA: B1 RNA with G35U
B19: Id_ii_S4_P3E.2_K3.1_C3.2_[C-2T]_[T-1C]_H3.1_A3.1_F3.1_T3.2_[T9A]_[A10T] (ssRNA)
RNA: B1 RNA with G24U, G25C, G35U
B20: Id_ii_S4_P3E.2_K3.1_C3.2_[C-2T]_[T-1A]_H3.1_A3.1_F3.1_T3.2_[A10T] (ssRNA)
RNA: B1 RNA with G24U, G25A, A34U, G35U
B21: Id_ii_S4_P3E.2_K3.1_C3.2_[C-2G]_[T-1C]_H3.1_A3.1_F3.1_T3.2_[T9C]_[A10C] (ssRNA)
RNA: B1 RNA with G25C, A34C, G35C
B22: Id_ii_S4_P3E.2_K3.1_C3.2_[C-2G]_[T-1C]_H3.1_A3.1_F3.1_T3.2_[T9C] (ssRNA)
RNA: B1 RNA with G25C, A34C, G35A
B23: Id_ii_S4_P3E.2_K3.1_C3.2_[C-2G]_H3.1_A3.1_F3.1_T3.2 (ssRNA)
RNA: B1 RNA with G25U, A34U, G35A

biological target: T1, PUF4 RNA-binding domain; assay: Mg; RNA-MaP; 20 mM Na-HEPES pH 7.4, 30 mM KOAc, 0.75 mM MgCl2, 0.1% Tween-20, 5% glycerol, 0.1 mg/mL BSA, 2 mM DTT; 25 C; 0.0125-409.6 nM protein; conditions: tags: N-His6-TEV cleaved; C-SNAP kept, Cy3B-labelled; label: tethered on chip by stalled RNA polymerase

ACAAACCCACACUUAUUAUAACAAAC (ssRNA) [Id_ii_S3_P5E.4_K5.3_C5.2_[T-1C]_H5.3_A5.1_F5.1_T5.2] and ACAAACCGACACUUAUUACGACAAAC (ssRNA) [Id_ii_S3_P5E.4_K5.3_C5.2_[T-1G]_H5.3_A5.1_F5.1_T5.2_[T11C]_[A12G]] cannot be ordered by Kd: greater than 2300 nM for the first, greater than 2300 nM for the second.

ACAAACCCACACUUAUUACCACAAAC (ssRNA) [Id_ii_S3_P5E.4_K5.3_C5.2_[T-1C]_H5.3_A5.1_F5.1_T5.2_[T11C]_[A12C]] and ACAAACCGACACUUAUUACCACAAAC (ssRNA) [Id_ii_S3_P5E.4_K5.3_C5.2_[T-1G]_H5.3_A5.1_F5.1_T5.2_[T11C]_[A12C]] cannot be ordered by Kd: greater than 2300 nM for the first, greater than 2300 nM for the second.

ACAAACCAACACUUAUUACUACAAAC (ssRNA) [Id_ii_S3_P5E.4_K5.3_C5.2_[T-1A]_H5.3_A5.1_F5.1_T5.2_[T11C]_[A12T]] and ACAAACCGACACUUAUUACUACAAAC (ssRNA) [Id_ii_S3_P5E.4_K5.3_C5.2_[T-1G]_H5.3_A5.1_F5.1_T5.2_[T11C]_[A12T]] cannot be ordered by Kd: greater than 2300 nM for the first, greater than 2300 nM for the second.

ACAAACCUACACUUAUUAUCACAAAC (ssRNA) [Id_ii_S3_P5E.4_K5.3_C5.2_H5.3_A5.1_F5.1_T5.2_[A12C]] and ACAAACCUACACUUAUUAGCACAAAC (ssRNA) [Id_ii_S3_P5E.4_K5.3_C5.2_H5.3_A5.1_F5.1_T5.2_[T11G]_[A12C]] cannot be ordered by Kd: greater than 2300 nM for the first, greater than 2300 nM for the second.

Going from ACAAACCUACACUUAUUACUACAAAC (ssRNA) [Id_ii_S3_P5E.4_K5.3_C5.2_H5.3_A5.1_F5.1_T5.2_[T11C]_[A12T]] to B1, the Kd falls from greater than 2300 nM to 9.31 nM. The second binds more tightly here.

Going from B2 to B3, the Kd falls from 15.9 nM to 1.68 nM (9.5-fold).

Compared with B4, B5 is 1.8-fold higher in Kd: 3.41 nM for the first, 6.05 nM for the second.

Going from B6 to B7, the Kd falls from 6 nM to 2.78 nM (2.2-fold).

Compared with B8, B9 is 4.3-fold lower in Kd: 9.13 nM for the first, 2.14 nM for the second.

B10 and B11 are within 1.5-fold of each other in Kd: 2.96 nM for the first, 2.87 nM for the second.

B12 and B13 are within 1.5-fold of each other in Kd: 20.1 nM for the first, 21.8 nM for the second.

Going from B14 to B15, the Kd falls from 6.04 nM to 3.63 nM (1.7-fold). The second binds more tightly here.

Compared with B16, B17 is 3-fold higher in Kd: 1.29 nM for the first, 3.9 nM for the second. The first binds more tightly here.

First: B18
Second: B19
The Kd of the first is 3.6-fold higher: 5.5 nM for the first, 1.51 nM for the second.

Going from B20 to B21, the Kd rises from 5.5 nM to 10.5 nM (1.9-fold). The first binds more tightly here.

First: B22
Second: B23
The Kd of the first is 20-fold higher: 46.9 nM for the first, 2.31 nM for the second. The second binds more tightly here.

Compared with ACAAACAUACACUUAUUAAUACAAAC (ssRNA) [Id_ii_S3_P5E.4_K5.3_C5.2_[C-2A]_H5.3_A5.1_F5.1_T5.2_[T11A]_[A12T]], UCUCUUUGUAUGAUUAUCUCUU (ssRNA) [Ia_S1_P5E.1_K5.1_C5.1_H5.1_A5.1_[T6G]_F5.1_T5.1] is lower in Kd: greater than 2300 nM for the first, 23 nM for the second.

Going from UCUCUUUAUUUUAUUAUCUCUU (ssRNA) [Ib_S1_P5E.1_K5.1_C5.1_H5.1_[G2A]_[A4T]_A5.1_F5.1_T5.1] to ACAAACCUACACUUAUUAUUACAAAC (ssRNA) [Id_ii_S3_P5E.4_K5.3_C5.2_H5.3_A5.1_F5.1_T5.2_[A12T]], the Kd rises from 1550 nM to greater than 2300 nM.

ACAAACCGACACUUAUUAUAACAAAC (ssRNA) [Id_ii_S3_P5E.4_K5.3_C5.2_[T-1G]_H5.3_A5.1_F5.1_T5.2] and ACAAACCUACACUUAUUAACACAAAC (ssRNA) [Id_ii_S3_P5E.4_K5.3_C5.2_H5.3_A5.1_F5.1_T5.2_[T11A]_[A12C]] cannot be ordered by Kd: greater than 2300 nM for the first, greater than 2300 nM for the second.

ACAAACCUACACUUAUUAAAACAAAC (ssRNA) [Id_ii_S3_P5E.4_K5.3_C5.2_H5.3_A5.1_F5.1_T5.2_[T11A]] and ACAAACCCACACUUAUUAUGACAAAC (ssRNA) [Id_ii_S3_P5E.4_K5.3_C5.2_[T-1C]_H5.3_A5.1_F5.1_T5.2_[A12G]] cannot be ordered by Kd: greater than 2300 nM for the first, greater than 2300 nM for the second.

ACAAACCCACACUUAUUAAGACAAAC (ssRNA) [Id_ii_S3_P5E.4_K5.3_C5.2_[T-1C]_H5.3_A5.1_F5.1_T5.2_[T11A]_[A12G]] and ACAAACCUACACUUAUUAUGACAAAC (ssRNA) [Id_ii_S3_P5E.4_K5.3_C5.2_H5.3_A5.1_F5.1_T5.2_[A12G]] cannot be ordered by Kd: greater than 2300 nM for the first, greater than 2300 nM for the second.

UCUCUUUGCUUUAUUAUCUCUU (ssRNA) [Ib_S1_P5E.1_K5.1_C5.1_H5.1_[T3C]_[A4T]_A5.1_F5.1_T5.1] and UCUCUUUAUCUUAUUAUCUCUU (ssRNA) [Ib_S1_P5E.1_K5.1_C5.1_H5.1_[G2A]_[A4C]_A5.1_F5.1_T5.1] cannot be ordered by Kd: greater than 2300 nM for the first, greater than 2300 nM for the second.

UCUCUUUGCCUUAUUAUCUCUU (ssRNA) [Ib_S1_P5E.1_K5.1_C5.1_H5.1_[T3C]_[A4C]_A5.1_F5.1_T5.1] and ACAAACCCACACUUAUUAUCACAAAC (ssRNA) [Id_ii_S3_P5E.4_K5.3_C5.2_[T-1C]_H5.3_A5.1_F5.1_T5.2_[A12C]] cannot be ordered by Kd: greater than 2300 nM for the first, greater than 2300 nM for the second.

Reference: PMC9352680, “A comprehensive thermodynamic model for RNA binding by the Saccharomyces cerevisiae Pumilio protein PUF4”
